According to paper doi:10.1101/2022.12.06.519343:

Columns and labels:
[1] = molecular target: T1, GFP-His6::sExu531 (Drosophila melanogaster); experiment: SEC; details: remark: other sources report otherwise
T1 chain: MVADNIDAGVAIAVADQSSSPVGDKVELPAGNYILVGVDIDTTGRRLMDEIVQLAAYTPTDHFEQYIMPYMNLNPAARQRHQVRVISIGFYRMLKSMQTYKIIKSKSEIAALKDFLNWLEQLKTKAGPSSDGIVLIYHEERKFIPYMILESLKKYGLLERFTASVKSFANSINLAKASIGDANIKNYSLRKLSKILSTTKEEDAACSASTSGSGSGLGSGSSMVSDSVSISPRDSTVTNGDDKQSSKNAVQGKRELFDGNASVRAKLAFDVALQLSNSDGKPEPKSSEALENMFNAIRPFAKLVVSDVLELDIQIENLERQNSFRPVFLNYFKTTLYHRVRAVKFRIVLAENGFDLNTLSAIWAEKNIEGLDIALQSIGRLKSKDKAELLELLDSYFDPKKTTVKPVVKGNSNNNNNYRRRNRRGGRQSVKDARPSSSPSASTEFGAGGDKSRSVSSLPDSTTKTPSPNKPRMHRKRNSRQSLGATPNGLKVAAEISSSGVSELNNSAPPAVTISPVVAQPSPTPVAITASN

[2] = molecular target: T1, GFP-His6::sExu531 (Drosophila …); experiment: SEC; details: remark: other sources report otherwise

stoichiometry N [1]: > 3
stoichiometry N [2]: 3
B1: GFP-His6::sExu531 (natural protein)
chain: T1 chain
